For the assay, the target named is GST-Kar2p (S. cerevisiae) (UniProt P16474). The assay can be described thus: pull-down.

B1: His-Sil1p (natural protein)
chain: TILHSSIHSVPSGGEIISAEDLKELEISGNSICVDNRCYPKIFEPRHDWQPILPGQELPGGLDIRINMDTGLKEAKLNDEKNVGDNGSHELIVSSEDMKASPGDYEFSSDFKEMRNIIDSNPTLSSQDIARLEDSFDRIMEFAHDYKHGYKIITHEFALLANLSLNENLPLTLRELSTRVITSCLRNNPPVVEFINESFPNFKSKIMAALSNLNDSNHRSSNILIKRYLSILNELPVTSEDLPIYSTVVLQNVYERNNKDKQLQIKVLELISKILKADMYENDDTNLILFKRNAENWSSNLQEWANEFQEMVQNKSIDELHTRTFFDTLYNLKKIFKSDITINKGFLNWLAQQCKARQSNLDNGLQERDTEQDSFDKKLIDSRHLIFG
Turning to B1, the reduction of binding in the presence of ATP stood at 50%.

Source of the values: article PMC2898433.
